PMC6910952 (Nature Communications, 2019)
Residue numbers refer to the chain shown, from its start. Values joined by “and” are separate entries in the source; they are usually repeats but may differ in a detail not shown here. Identical values can stand only once. Each block holds one binder with its values, some of them ahead of it.

Key:
Conditions in all cases: both partners purified
[1] = target: T1, Cdc48 (recombinant, hexameric) (Saccharomyces cerevisiae, UniProt P25694 1-835); test: pull-down; GST-yUfd1 (0.5 μM) on Glutathione Sepharose 4B beads with His6-tagged Npl4 (wild type or mutant), Cdc48 and K48 chains; same binding buffer (Supplementary Fig. 3b)
T1 construct: Cdc48 AAA-family ATPase of Saccharomyces cerevisiae; source: E. coli Rosetta (DE3) (pET21a), purified (TALON resin, Superose 6)

M1-Ub2 = target: T2, M1-Ub2 (UniProt P0CG48 1-76; P0CG48 1-76); test: SPR; Biacore T200, 25 °C; wild-type or mutant His6-yNpl4^113–580, yUfd1–His6-yNpl4^113–580 or His6-hNpl4 immobilized on a CM5 chip by amine coupling; Ub2 or Ub4 in two-fold dilution series injected 60 s at 10 μL per min in 10 mM HEPES-NaOH pH 7.5, 150 mM NaCl, 0.05% Tween-20, 0.5 g/L BSA; equilibrium Kd
T2 construct: ubiquitin (Ub), first unit; ubiquitin (Ub), second unit

M1-Ub4 = target: T3, M1-Ub4 (UniProt P0CG48 1-76; P0CG48 1-76; P0CG48 1-76; P0CG48 1-76); test: as above
T3 construct: ubiquitin (Ub), first unit; ubiquitin (Ub), second unit; ubiquitin (Ub), third unit; ubiquitin (Ub), fourth unit

[2] = target: T4, yNpl4^113–580 (E123A K124A E125A) (Saccharomyces cerevisiae, UniProt P33755 113-580, E123A | K124A | E125A); test: crystal structure; yNpl4^113–580 (E123A K124A E125A)–yUfd1^288–305 complex; sitting drop, 20 °C, 90 mM Bis-Tris-HCl pH 7.5, 19% PEG3350, 10 mM ATP
T4 construct: not shown: GST, N-terminal, cleaved
T4 sequence (looked up): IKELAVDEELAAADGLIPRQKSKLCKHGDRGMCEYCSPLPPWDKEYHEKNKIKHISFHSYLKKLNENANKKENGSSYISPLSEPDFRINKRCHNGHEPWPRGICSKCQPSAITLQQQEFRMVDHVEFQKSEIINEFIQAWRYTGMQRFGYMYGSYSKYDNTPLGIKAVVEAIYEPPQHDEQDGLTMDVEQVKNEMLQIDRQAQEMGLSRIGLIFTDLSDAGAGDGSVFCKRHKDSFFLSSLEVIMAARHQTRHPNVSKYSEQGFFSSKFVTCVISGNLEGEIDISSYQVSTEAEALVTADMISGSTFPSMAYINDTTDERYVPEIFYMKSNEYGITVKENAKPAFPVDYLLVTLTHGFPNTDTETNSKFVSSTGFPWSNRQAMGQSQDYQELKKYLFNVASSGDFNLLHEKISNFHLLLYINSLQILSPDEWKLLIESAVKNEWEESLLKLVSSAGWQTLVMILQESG

[3] = target: T1, Cdc48 (recombinant, hexameric); test: pull-down; GST-yNpl4 (0.5 μM, wild type or mutant) on Glutathione Sepharose 4B beads, 1 h at room temperature with 0.5 μM yUfd1, 3 μM Cdc48 (0.5 μM hexamer) and 1 μg K48 chains in 100 μL 50 mM Tris-HCl pH 7.5, 100 mM NaCl, 10% glycerol, 0.1% Triton X-100; chains detected by anti-Ub immunoblot, proteins by Ponceau S

T1 sequence (P25694 whole entry): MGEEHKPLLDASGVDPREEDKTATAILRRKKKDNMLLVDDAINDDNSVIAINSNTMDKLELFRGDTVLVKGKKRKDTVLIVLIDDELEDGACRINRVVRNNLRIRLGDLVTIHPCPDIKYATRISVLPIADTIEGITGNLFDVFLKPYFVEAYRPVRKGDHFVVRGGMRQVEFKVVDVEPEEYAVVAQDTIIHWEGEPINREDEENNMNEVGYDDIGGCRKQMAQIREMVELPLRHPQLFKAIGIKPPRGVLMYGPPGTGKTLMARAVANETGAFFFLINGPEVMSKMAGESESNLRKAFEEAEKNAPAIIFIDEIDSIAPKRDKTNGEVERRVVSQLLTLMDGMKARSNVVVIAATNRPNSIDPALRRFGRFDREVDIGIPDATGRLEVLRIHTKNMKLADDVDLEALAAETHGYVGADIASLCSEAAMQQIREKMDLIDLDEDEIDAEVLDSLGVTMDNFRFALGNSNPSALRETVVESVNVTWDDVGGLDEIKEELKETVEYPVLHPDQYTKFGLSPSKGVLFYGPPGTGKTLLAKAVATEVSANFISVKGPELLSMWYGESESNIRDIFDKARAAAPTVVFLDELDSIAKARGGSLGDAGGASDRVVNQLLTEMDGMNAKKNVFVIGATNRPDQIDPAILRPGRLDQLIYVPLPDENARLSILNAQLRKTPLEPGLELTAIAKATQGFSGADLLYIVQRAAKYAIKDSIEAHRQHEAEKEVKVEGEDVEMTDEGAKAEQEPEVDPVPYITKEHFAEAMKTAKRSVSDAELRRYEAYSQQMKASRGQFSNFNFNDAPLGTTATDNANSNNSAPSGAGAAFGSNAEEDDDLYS

binding result [1]: binds
B1: GST-yUfd1 (full length) (natural protein, Saccharomyces cerevisiae, UniProt P53044 1-361, looked up)
chain: MFSGFSSFGGGNGFVNMPQTFEEFFRCYPIAMMNDRIRKDDANFGGKIFLPPSALSKLSMLNIRYPMLFKLTANETGRVTHGGVLEFIAEEGRVYLPQWMMETLGIQPGSLLQISSTDVPLGQFVKLEPQSVDFLDISDPKAVLENVLRNFSTLTVDDVIEISYNGKTFKIKILEVKPESSSKSICVIETDLVTDFAPPVGYVEPDYKALKAQQDKEKKNSFGKGQVLDPSVLGQGSMSTRIDYAGIANSSRNKLSKFVGQGQNISGKAPKAEPKQDIKDMKITFDGEPAKLDLPEGQLFFGFPMVLPKEDEESAAGSKSSEQNFQGQGISLRKSNKRKTKSDHDSSKSKAPKSPEVIEID
notes: Ufd1 of Saccharomyces cerevisiae (yUfd1), full length; also called GST-Ufd1; source: E. coli Rosetta (DE3) (pGEX-6P1), purified (Glutathione Sepharose FF, Resource Q); not shown: GST, N-terminal, kept

Kd (M1-Ub2): 333 µM and 420 µM
Kd (M1-Ub4): 139 µM and 103 µM
B2: His6-yNpl4^113–580 (domain or fragment, Saccharomyces cerevisiae, UniProt P33755 113-580, looked up)
chain: T4 sequence (looked up) with A11E, A12K, A13E
notes: codon-optimized synthetic cDNA; also called WT; WT #1; source: E. coli Rosetta (DE3), purified (Ni-NTA, Resource Q); also in lysate, mixed with cells expressing GST-yUfd1 for co-purification; not shown: His6, N-terminal, kept

Kd (M1-Ub4): 151 µM
B3: yUfd1–His6-yNpl4^113–580 complex (complex, Saccharomyces cerevisiae)
chain 1: B1 chain
chain 2: T4 sequence (looked up) with A11E, A12K, A13E
notes: Ufd1 of Saccharomyces cerevisiae (yUfd1), full-length gene in pGEX-6P1; also called yUfd1–yNpl4; not shown: GST, N-terminal, cleaved; His6, N-terminal, kept

binding result [2]: binds
B4: yUfd1^288–305 (peptide, UniProt P53044 288-305, looked up)
chain: EPAKLDLPEGQLFFGFPM
notes: also called yUfd1 NBM; not shown: GST, N-terminal, cleaved

binding result [3]: binds
B5: GST-yNpl4 T571A (natural protein, Saccharomyces cerevisiae, UniProt P33755 1-580, looked up)
chain: MLIRFRSKNGTHRVSCQENDLFGTVIEKLVGNLDPNADVDTFTVCEKPGQGIHAVSELADRTVMDLGLKHGDMLILNYSDKPANEKDGVNVEIGSVGIDSKGIRQHRYGPLRIKELAVDEELEKEDGLIPRQKSKLCKHGDRGMCEYCSPLPPWDKEYHEKNKIKHISFHSYLKKLNENANKKENGSSYISPLSEPDFRINKRCHNGHEPWPRGICSKCQPSAITLQQQEFRMVDHVEFQKSEIINEFIQAWRYTGMQRFGYMYGSYSKYDNTPLGIKAVVEAIYEPPQHDEQDGLTMDVEQVKNEMLQIDRQAQEMGLSRIGLIFTDLSDAGAGDGSVFCKRHKDSFFLSSLEVIMAARHQTRHPNVSKYSEQGFFSSKFVTCVISGNLEGEIDISSYQVSTEAEALVTADMISGSTFPSMAYINDTTDERYVPEIFYMKSNEYGITVKENAKPAFPVDYLLVTLTHGFPNTDTETNSKFVSSTGFPWSNRQAMGQSQDYQELKKYLFNVASSGDFNLLHEKISNFHLLLYINSLQILSPDEWKLLIESAVKNEWEESLLKLVSSAGWQALVMILQESG
notes: Npl4 of Saccharomyces cerevisiae (yNpl4), full length; source: E. coli Rosetta (DE3) (pGEX-6P1), purified (Glutathione Sepharose FF, Resource Q); not shown: GST, N-terminal, kept

binding result [3]: binds
B6: GST-yNpl4 M574A (natural protein, Saccharomyces cerevisiae, UniProt P33755 1-580, looked up)
chain: B5 chain with A571T, M574A
notes: as for B5

binding result [3]: binds
B7: GST-yNpl4 S498R (natural protein, Saccharomyces cerevisiae, UniProt P33755 1-580, looked up)
chain: B5 chain with S498R, A571T
notes: as for B5

binding result [3]: binds
B8: GST-yNpl4 M574Q (natural protein, Saccharomyces cerevisiae, UniProt P33755 1-580, looked up)
chain: B5 chain with A571T, M574Q
notes: as for B5

binding result [3]: binds
B9: GST-yNpl4 A494F (natural protein, Saccharomyces cerevisiae, UniProt P33755 1-580, looked up)
chain: B5 chain with A494F, A571T
notes: as for B5

binding result [3]: binds
B10: GST-yNpl4 I575A (natural protein, Saccharomyces cerevisiae, UniProt P33755 1-580, looked up)
chain: B5 chain with A571T, I575A
notes: as for B5
